Source: US20210101932A1 (Bicycle, published 2021)
*1 amine or outer side, *2 acyl side, *3 side chain or, on linkers, in order; H or OH if unused. Bridges are numbered along the chain shown (N, C = ends). Where no end group is shown, it is not given here. [ ]: non-standard residue; d: D form. TATA = O=C(CC[*:1])N1CN(C(=O)CC[*:2])CN(C(=O)CC[*:3])C1; hArg = N=C(N)NCCCC[C@H](N)C(=O)O; Aad = N[C@@H](CCCC(=O)O)C(=O)O; Chg = N[C@H](C(=O)O)C1CCCCC1; Nle = CCCC[C@H](N)C(=O)O; Nva = CCC[C@H](N)C(=O)O; Aib = CC(C)(N)C(=O)O

Biological target: T1, Recombinant human PD-L1 (Sino Biologicals or R&D systems), biotinylated (human, UniProt Q9NZQ7 19-238, limits assumed, biotinylated with EZ-Link Sulfo-NHS-LC-LC-Biotin)
T1 construct: captured on a streptavidin CM5 chip for SPR; also called human PD-L1 protein; Biotinylated PD-L1
Assay: SPR (Biacore), biotinylated PD-L1 on streptavidin chip
Experimental: Biacore experiments were performed to determine kₐ) (M⁻¹s⁻¹), kd (s⁻¹), KD (nM) values of monomeric peptides binding to human PD-L1 protein. […] The protein was desalted to remove uncoupled biotin using spin columns into PBS. For analysis of binding, a Biacore 3000 instrument was used utilizing a CM5 sensor chip (GE Healthcare). Streptavidin was immobilized on the chip using standard amine-coupling chemistry at 25° C. with HBS-N (10 mM HEPES, 0.15 M NaCl, pH 7.4) as the running buffer. The carboxymethyl dextran surface was activated with a 12 min injection of a 1:1 ratio of 0.4 M 1-ethyl-3-(3-dimethylaminopropyl) carbodiimide hydrochloride (EDC)/0.1 M N-hydroxy succinimide (NHS) at a flow rate of 10 μl/min. For capture of streptavidin, protein was diluted to 0.1 mg/ml in 10 mM sodium acetate (pH 4.5) and captured by injecting 70 μl onto the activated chip surface. Residual activated groups were blocked with a 7 min injection of 1 M ethanolamine (pH 8.5). Biotinylated PD-L1 stock was diluted 1:100 in HBS-N and captured on one flow cell at 5 μl/min to a level of 1000-1300 RU. Buffer was changed to PBS/0.05% Tween 20 and a dilution series of the peptides was prepared in this buffer with a final DMSO concentration of 0.5%. The top concentrations were 200 nM or 500 nM with 6 2-fold dilutions. The SPR analysis was run at 25° C. at a flow rate of Flow rate 50 μl/min with 60 seconds association and 400 seconds disassociation. Data were corrected for DMSO excluded volume effects. All data were double-referenced for blank injections and reference surface using standard processing procedures and data processing and kinetic fitting were performed using Scrubber software, version 2.0c (Biologic Software). Data were fitted using mass transport model allowing for mass transport effects where appropriate.

T1 sequence (Q9NZQ7 19-238 limits assumed): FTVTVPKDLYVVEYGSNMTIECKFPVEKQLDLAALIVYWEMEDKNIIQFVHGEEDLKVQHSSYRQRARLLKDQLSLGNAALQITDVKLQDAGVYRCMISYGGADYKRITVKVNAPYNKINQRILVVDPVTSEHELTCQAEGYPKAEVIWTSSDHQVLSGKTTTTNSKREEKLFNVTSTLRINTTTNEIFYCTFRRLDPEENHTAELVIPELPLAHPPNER

Binder | Kd
SDKCSAGWLTMCQKLHXCA ([Nle] as in SDKCSAGWLTMCQKLH[Nle]CA; Ci, Cii, Ciii cyclised on TATA) [BCY10074] | 36.1 nM
SDXCSAGWLTMCQKLHLCA ([HArg] (homoarginine) = X at chain position 3; Ci, Cii, Ciii cyclised on TATA) [BCY10052] | 22.3 nM
SDKCSAGWLTMCQKLH[Nva]CA (linker 4-12-18 via TATA) [BCY10083] | 75 nM
SDKCSAGWLTMCQKL[Aib]LCA (linker 4-12-18 via TATA) [BCY10073] | 15.8 nM
SDKCSAGWLTMCQ[Nle]LHLCA (linker 4-12-18 via TATA) [BCY10068] | 54.5 nM
SDKCSAGWLTMCQKXHLCA ([Nle] as in SDKCSAGWLTMCQK[Nle]HLCA; Ci, Cii, Ciii cyclised on TATA) [BCY10071] | 58.2 nM
SDKCSAGWLTMCQK[Nva]HLCA (linker 4-12-18 via TATA) [BCY10084] | 43.2 nM
SDKCSAGWLTMC[Chg]KLHLCA (linker 4-12-18 via TATA) [BCY10066] | 14.4 nM
SDKCSAGWLTXCQKLHLCA ([Nle] as in SDKCSAGWLT[Nle]CQKLHLCA; Ci, Cii, Ciii cyclised on TATA) [BCY10058] | 59.7 nM
SDKCS[Nle]GWLTMCQKLHLCA (linker 4-12-18 via TATA) [BCY10062] | 23 nM
SDKCSXGWLTMCQKLHLCA ([Aib] as in SDKCS[Aib]GWLTMCQKLHLCA; Ci, Cii, Ciii cyclised on TATA) [BCY10054] | 31.2 nM
SDKCSXGWLTMCQKLHLCA ([Abu] as in SDKCS[Abu]GWLTMCQKLHLCA; Ci, Cii, Ciii cyclised on TATA) [BCY10055] | 27.9 nM

The next lines start with the values.

Kd | Binder
30 nM | Ac-[hArg]CS[Aad]GWLTMCLKLHLC (linker 2-10-16 via TATA; not fully specified (C-terminus); printed as Ac-[HArg]CS[Aad]GWLTMCLKLHLC) [BCY11827]
17.6 nM | Ac-DKCS[Aad]GWLTMCQKLHLCPSH-OH (linker 3-11-17 via TATA; SMILES CSCC[C@@H]1NC(=O)[C@H]([C@@H](C)O)NC(=O)[C@H](CC(C)C)NC(=O)[C@H](Cc2c[nH]c3ccccc23)NC(=O)CNC(=O)[C@H](CCCC(=O)O)NC(=O)[C@H](CO)NC(=O)[C@@H](NC(=O)[C@H](CCCCN)NC(=O)[C@H](CC(=O)O)NC(C)=O)CSCCC(=O)N2CN3CN(C2)C(=O)CCSC[C@@H](C(=O)N2CCC[C@H]2C(=O)N[C@@H](CO)C(=O)N[C@@H](Cc2c[nH]cn2)C(=O)O)NC(=O)[C@H](CC(C)C)NC(=O)[C@H](Cc2c[nH]cn2)NC(=O)[C@H](CC(C)C)NC(=O)[C@H](CCCCN)NC(=O)[C@H](CCC(N)=O)NC(=O)[C@H](CSCCC3=O)NC1=O) [BCY11853]
60 nM | Ac-KCS[Aad]GWLTMCLKLHLC (linker 2-10-16 via TATA; not fully specified (C-terminus); printed as Ac-KCS[Aad]GWLTMCLKLHLC) [BCY11824]
28.8 nM | Ac-SEKCS[Aad]GWLTMCLKLHLC (linker 4-12-18 via TATA) [BCY11825]
13.2 nM | Ac-SEKCS[Aad]GWLTMCLKLHLCPSH (linker 4-12-18 via TATA) [BCY11831]
18.2 nM | Ac-EKCS[Aad]GWLTMCLKLHLC (linker 3-11-17 via TATA) [BCY11826]
9.94 nM | Ac-SDKCSEGWLTMCQKLHLC (linker 4-12-18 via TATA; not fully specified (C-terminus); printed as [Ac]SDKCSEGWLTMCQKLHLC) [BCY10960]
16.6 nM | Ac-SDKCS[Aad]GWLTMCLKLHLCA (linker 4-12-18 via TATA) [BCY11828]
